PMC5866752 (Nature chemical biology, 2018)
Where a SMILES comes first, the peptide text is derived from it. Where no end group is shown, it is not given here.

Assays:
p6–UEV interaction = biological target: T1, p6–UEV interaction (Homo sapiens, UniProt Q99816); test: sandwich ELISA monitoring disruption of the p6–UEV PPI; type: binding, HIV p6 / human UEV (TSG101)
T1 sequence (Q99816 2-145 limits assumed): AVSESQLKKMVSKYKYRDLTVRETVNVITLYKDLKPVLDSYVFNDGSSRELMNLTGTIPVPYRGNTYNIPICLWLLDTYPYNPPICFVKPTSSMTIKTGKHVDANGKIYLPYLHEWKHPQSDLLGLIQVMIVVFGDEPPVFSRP

[1] = tested on: GAG-mediated budding of virus-like particles from HEK293T cells; test: virus-like particle budding assay; type: cell-based, human; details: 25 μM
[2] = biological target: T2, His6-UEV (ubiquitin E2 variant domain of the human TSG101 protein) (human, UniProt Q99816 2-145); test: ELISA
T2 sequence: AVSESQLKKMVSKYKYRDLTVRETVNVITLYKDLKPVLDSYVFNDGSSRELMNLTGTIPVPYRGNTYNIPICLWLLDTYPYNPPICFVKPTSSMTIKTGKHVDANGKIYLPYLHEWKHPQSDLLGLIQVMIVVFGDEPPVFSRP

[3] = biological target: T2, His6-UEV (ubiquitin E2 variant domain …); test: fluorescence polarisation

CC[C@H](C)[C@@H]1NC(=O)[C@H](Cc2c[nH]c3ccccc23)NC(=O)CNC(=O)[C@H](CO)NC(=O)[C@H](C(C)C)NC(=O)[C@H](CC(N)=O)NC(=O)[C@H](Cc2c[nH]c3ccccc23)NC(=O)[C@H](Cc2ccc(O)cc2)NC1=O [CP11] (cyclo(GWIYWNVS))
IC50 (p6–UEV interaction): 30.2 ± 2.2 µM

CGRKKRRQRRRPPQ [Tat]
effect on viral budding [1]: no effect

B1: GST-p6 (GST-tagged HIV p6 protein) (natural protein)
chain: LQSRPEPTAPPEESFRSGVETTTPPQKQEPIDKELYPLTSLRSLFGNDPSSQ
EC50 [2]: 0.948 µM

B2: N-terminal FITC-labeled peptide 3 (peptide)
chain: GVAGGAACLHFFLSMPPSHVLDIC
modifications: FITC on the N-terminus; two non-overlapping lanthionine (thioether) rings
Kd [3]: 5.5 µM

B3: FITC labelled PTAP peptide (GGPEPTAPPEE) (peptide)
peptide: GGPEPTAPPEE
modifications: also: FITC label, position not given here
Kd [3]: 16.6 µM
